Assay results taken from patent US20210292393A1.
Several values for one entry are separate records, joined by “and”; a condition that tells them apart may be missing. Equal entries are not always repeated. Where two headings read alike, the source gives them in different places.

B1: antibody 490 (antibody, V domains shown)
VH: QVQLQESGPGLVKPSGTLSLTCAVSGGSISSSNWWSWVRQPPGKGLEWIGELYHSGSTNYNPSLKSRVTISVDKSKNQFSLKLSSVTAADTAVYYCARVGPYYYDSSGYYNYFDYWGPGTLVTVSS
VL: EIVLTQSPATLSLSPGERATLSCRASQSVSSYLAWYQQKPGQAPRLLIYDASNRATGIPARFSGSGSGTDFTLTISSLEPEDFAVYYCQQRSNWPPGITFGQGTRLEIK
B2: antibody 493 (antibody, V domains shown)
VH: EVQLVESGGGLIQPGRSLRLSCAASGFTVSITYMSWVRQAPGKGLEWVSLIYSGGSSYYADSVKGRFTISRDNSKNTLYLQMNSLRAEDTAVYYCATTMVRGVIISYYYGMDVWGQGTTVTVSS
VL: QSALTQPASVSGSPGQSITISCTGTSSDVGGYNYVSWYQQHPGKAPKLMIYEVSNRPSGVSNRFSGSKSGNTASLTISGLQAEDEADYYCSSYTSSSTLVFGGGTKLTVL
B3: antibody 495 (antibody, V domains shown)
VH: QITLKESGPTLVKPTQTLTLTCTFSGFSLSTSGVGVGWIRQPPGKALEWLALIYWDDDKRYSPSLKSRLTITKDTSKNQVVLIMTNMDPVDTATYYCAHRDSSSWFDLDAFDIWGQGTMVIVSS
VL: QSVLTQPPSVSEAPRQRVTISCSGSSSNIGNNAVNWYQQLPGKAPKLLIYYDDLLPSGVSDRFSGSKSGTSASLAISGLQSEDEADYYCAAWDDRLNGPVFGGGTKLTVL
B4: antibody 374 (antibody, V domains shown)
VH: QVQLQESGPGLVKPSGTLSLTCAVSGGSISSSKWWSWVRQPPGKGLEWIGEIYHSGSTNYNPSLKSRVTISVDKSKNQFSLKLSSVTAADTAVYYCARRELGEGTFTYWGQGTLVTVSS
VL: not shown
B5: antibody 382 (antibody, V domains shown)
VH: QVQLVESGGGVVQPGRSLRLSCAASGFTFSNYGMHWVRQAPGKGLEWMTVISFDGRNKYYADSVKGRFTISRDNSKNTLFLQMNSLTTEDTALYFCASGRRPRYSSGWSFDYWGQGTLVTVSS
VL: DIQMTQSPSSLSASVGDRVTITCQASQDIGNYLNWYQQKLGKAPNLLIYDASNLETGVPSRFSGSGSGTDFTFTINSLQPEDTATYYCQQYDDPSITFGQGTRLEIK
B6: antibody 383 (antibody, V domains shown)
VH: EVQLVESGGGLVQPGGSLRLSCAASGFTFSSYDMHWVRQATGKGLEWVSTIGTAGDTYYPGSVKGRFTISRENAKNSLYLQMNSLRAGDTAVYYCARVAYSSSFVYWYFDLWGRGTLVTVSS
VL: DIQMTQSPSSLSASIGDRVTITCRASQSISSYLNWYQQKPGKAPNLLIYAASSLQSGVPSRFSGSGSGTDFTLTISSLQPEDFATYYCQQSYTTPLYTFGQGTKLEIK
B7: antibody 436 (antibody, V domains shown)
VH: QVQVVESGGGVVQPGRSLRLSCAASGFTFSSYAMHWVRQAPGKGLEWVAVISYDGNNEYYVDPVKGRFTISRDNSKNTLYLQMNSLRAEDTALYYCATSREAIVVGGILDYWGQGTLVTVSS
VL: DIQMTQSPSSLSASVGDRVTITCQASHDINNFLNWYQQKPGQAPKLLIYDASNLETGVPSRFSGSGSGTDFTFTISSLHPEDVATYYCQQYDGLPRYVTFGQGTKLEIR
B8: antibody 464 (antibody, V domains shown)
VH: QVQLVQSGAEVKKPGASVKVSCKVSGYTLTELSMHWVRQAPGKGLEWMGGFDPEDGETIYAQKFQGRVTMTEDTSTDTAYMELSSLRSEDTAVYYCATARAFGVANWFDPWGQGTLVTVSS
VL: QSVLTQPPSASGTPGQRVTISCSGSSSNIGSNYVYWYQQLPGTAPKLLIYRNNQRPSGVPDRFSGSKSGTSASLAISGLRSEDEADYYCAAWDDSLSGLYVFGTGTKVTVL

Assays:
Settings in all cases: remark: other sources report otherwise
[1] = biological target: SARS-CoV-2 full length spike protein, wild type, expressed on the surface of CHO cells (SARS-CoV-2), P0DTC2
[2] = biological target: SARS-CoV-2 spike protein (SARS-CoV-2), P0DTC2; assay: HT-SPR, Carterra LSA; mAb coupled to chip, antigen injected; 1:1 fit
[3] = biological target: SARS-CoV-2 spike (S) protein (SARS-CoV-2), P0DTC2
[4] = biological target: SARS-CoV-2 spike protein (SARS-CoV-2), P0DTC2

Row | Binder | median fluorescence fold over isotype control (fold over isotype) [1] | Kd [3] [nM] | koff [3] [s⁻¹] | kon [3] [M⁻¹ s⁻¹] | further results
1 | B1 | 1.07 and 1.28 and 1.08 | – | – | – | –
2 | B2 | 1.26 and 1.1 | – | – | – | Kd [2]: < 0.133 nM; koff [2]: < 1e-05 s⁻¹
3 | B3 | 1.23 and 0.83 | – | – | – | Kd [2]: 0.0718 nM; koff [2]: 1.55e-05 s⁻¹; kon [2]: 216000 M⁻¹ s⁻¹
4 | B4 | – | 1.58 | 7.86e-05 | 49600 | –
5 | B5 | – | 11.2 | 0.00134 | 120000 | –
6 | B6 | – | 0.772 | 7.09e-05 | 91800 | –
7 | B7 | – | – | – | – | Kd [4]: 19.4 nM; koff [4]: 0.000352 s⁻¹; kon [4]: 18200 M⁻¹ s⁻¹
8 | B8 | – | – | – | – | Kd [4]: 4.58 nM; koff [4]: 0.000512 s⁻¹; kon [4]: 112000 M⁻¹ s⁻¹
